Experimental data as given in patent US20170082633A1 (WHITEHEAD INSTITUTE FOR BIOMEDICAL RESEARCH, published 2017).

How the values were obtained:
[1] = molecular target: co-expressed epitope tagged Ragulator proteins (UniProt Q6IAA8 2-161; Q9Y2Q5 1-125; Q9UHA4 1-124; Q0VGL1 1-99; O43504 1-91); assay: FLAG IP (FLAG-p14) from HEK-293T cells co-transfected with the HA-tagged Ragulator components and HA-SLC38A9.4; immunoblot
[2] = molecular target: endogenous Ragulator (UniProt Q6IAA8 2-161; Q9Y2Q5 1-125; Q9UHA4 1-124; Q0VGL1 1-99; O43504 1-91); assay: anti-FLAG co-immunoprecipitation from HEK-293T cells, immunoblot
Description: (§1) HEK-293T cells were cultured in DMEM supplemented with 10% inactivated fetal bovine serum, penicillin (100 IU/mL), and streptomycin (100 μg/mL) and maintained at 37° C. and 5% CO₂. Two million HEK-293T cells were plated in 10 cm culture dishes.
(§2) Transfection mixes were taken up to a total of 5 μg of DNA using empty pRK5. HEK-293T cells stably expressing FLAG-tagged proteins were rinsed once with ice-cold PBS and lysed in ice-cold lysis buffer (40 mM HEPES pH 7.4, 1% Triton X-100, 10 mM β-glycerol phosphate, 10 mM pyrophosphate, 2.5 mM MgC12 and 1 tablet of EDTA-free protease inhibitor (Roche) per 25 ml buffer). The soluble fractions from cell lysates were isolated by centrifugation at 13,000 rpm for 10 min in a microcentrifuge. […] Immunoprecipitates were washed three times with lysis buffer containing 500 mM NaCl. Immunoprecipitated proteins were denatured by the addition of 50 μL of sample buffer and incubation at RT for 30 min. It is critical that the samples containing SLC38A9 are neither boiled nor frozen prior to resolution by SDS-PAGE and analysis by immunoblotting. A similar protocol was employed when preparing samples for mass spectrometry.

[3] = molecular target: T1, endogenous RagA (UniProt Q7L523 1-313); assay: FLAG IP from transfected HEK-293T cells, immunoblot
T1 construct: Detected by immunoblot in anti-FLAG immunoprecipitates; also called RagA GTPase
Description: as §1, §2

[4] = molecular target: T2, endogenous RagC (UniProt Q9HB90 2-399); assay: FLAG IP from HEK-293T cells stably expressing the bait, immunoblot
T2 construct: Detected by immunoblot in anti-FLAG immunoprecipitates; also called RagC GTPase
Description: as §2

[5] = molecular target: T3, endogenous p18 (UniProt Q6IAA8 2-161); assay: as above
T3 construct: Detected by immunoblot in anti-FLAG immunoprecipitates; also called LAMTOR1
Description: as §2

[6] = molecular target: T4, raptor (human (HEK-293T cells), UniProt Q8N122); assay: FLAG IP from transfected HEK-293T cells, immunoblot
T4 construct: endogenous; Named only on the sheet
Description: as §1, §2

[7] = molecular target: T5, endogenous SLC38A9 (human, UniProt Q8NBW4 1-561, limits assumed); assay: FLAG IP from HEK-293T cells stably expressing the bait, - or + amino acids; immunoblot
T5 construct: Endogenous protein of HEK-293T cells, found by LC-MS-MS or immunoblot; also called SLC38A9 (NCBI Gene ID: 153129)
T5 sequence: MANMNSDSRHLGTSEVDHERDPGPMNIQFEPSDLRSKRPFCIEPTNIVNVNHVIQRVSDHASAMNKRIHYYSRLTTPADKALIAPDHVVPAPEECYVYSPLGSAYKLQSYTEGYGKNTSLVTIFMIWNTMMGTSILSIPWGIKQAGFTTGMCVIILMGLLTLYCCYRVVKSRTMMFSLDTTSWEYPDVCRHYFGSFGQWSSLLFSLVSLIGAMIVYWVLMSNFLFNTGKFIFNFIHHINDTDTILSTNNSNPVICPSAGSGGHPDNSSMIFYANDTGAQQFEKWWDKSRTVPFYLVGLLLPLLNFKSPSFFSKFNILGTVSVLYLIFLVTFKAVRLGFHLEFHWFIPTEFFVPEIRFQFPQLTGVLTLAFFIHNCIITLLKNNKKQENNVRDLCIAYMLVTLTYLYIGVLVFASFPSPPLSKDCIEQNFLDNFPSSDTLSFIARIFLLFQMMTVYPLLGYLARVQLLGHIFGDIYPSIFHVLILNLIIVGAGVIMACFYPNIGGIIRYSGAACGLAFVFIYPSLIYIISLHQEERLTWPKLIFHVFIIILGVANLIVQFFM

T4 sequence (Q8N122 whole entry): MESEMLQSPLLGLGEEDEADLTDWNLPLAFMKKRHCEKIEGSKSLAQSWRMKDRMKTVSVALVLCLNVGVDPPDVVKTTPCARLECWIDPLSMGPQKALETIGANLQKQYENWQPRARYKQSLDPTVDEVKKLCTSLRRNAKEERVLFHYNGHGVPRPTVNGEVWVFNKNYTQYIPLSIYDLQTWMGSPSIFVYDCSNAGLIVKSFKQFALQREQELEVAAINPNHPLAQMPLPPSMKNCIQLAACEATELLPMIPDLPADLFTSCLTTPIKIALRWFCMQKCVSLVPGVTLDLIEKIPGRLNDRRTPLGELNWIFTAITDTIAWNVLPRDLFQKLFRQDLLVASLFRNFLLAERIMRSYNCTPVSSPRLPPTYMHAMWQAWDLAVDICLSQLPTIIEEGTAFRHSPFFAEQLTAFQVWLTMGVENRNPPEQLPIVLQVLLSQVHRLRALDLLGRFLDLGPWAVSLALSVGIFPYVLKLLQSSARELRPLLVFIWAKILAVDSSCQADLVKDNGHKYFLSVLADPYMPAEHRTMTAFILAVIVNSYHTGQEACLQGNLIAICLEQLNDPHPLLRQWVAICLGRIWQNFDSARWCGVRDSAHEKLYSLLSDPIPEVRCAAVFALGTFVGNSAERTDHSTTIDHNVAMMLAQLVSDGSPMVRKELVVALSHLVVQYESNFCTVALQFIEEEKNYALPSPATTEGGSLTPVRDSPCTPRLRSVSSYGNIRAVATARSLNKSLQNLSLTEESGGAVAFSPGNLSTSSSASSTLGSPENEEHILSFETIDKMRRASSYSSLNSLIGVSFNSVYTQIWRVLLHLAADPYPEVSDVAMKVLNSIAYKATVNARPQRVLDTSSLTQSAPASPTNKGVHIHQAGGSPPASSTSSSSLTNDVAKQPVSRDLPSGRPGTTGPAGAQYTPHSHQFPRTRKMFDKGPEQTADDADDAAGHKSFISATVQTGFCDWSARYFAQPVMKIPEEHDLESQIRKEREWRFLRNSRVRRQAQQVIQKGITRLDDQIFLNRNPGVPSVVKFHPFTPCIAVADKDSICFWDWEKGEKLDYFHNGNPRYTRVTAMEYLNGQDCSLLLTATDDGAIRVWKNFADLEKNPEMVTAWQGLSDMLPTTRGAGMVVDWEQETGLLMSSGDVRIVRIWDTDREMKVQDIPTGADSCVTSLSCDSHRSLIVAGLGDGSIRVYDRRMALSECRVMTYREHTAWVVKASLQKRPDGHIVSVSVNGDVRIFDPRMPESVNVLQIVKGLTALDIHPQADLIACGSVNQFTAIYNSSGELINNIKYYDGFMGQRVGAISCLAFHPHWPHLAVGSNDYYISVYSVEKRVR
T2 sequence (Q9HB90 2-399 limits assumed): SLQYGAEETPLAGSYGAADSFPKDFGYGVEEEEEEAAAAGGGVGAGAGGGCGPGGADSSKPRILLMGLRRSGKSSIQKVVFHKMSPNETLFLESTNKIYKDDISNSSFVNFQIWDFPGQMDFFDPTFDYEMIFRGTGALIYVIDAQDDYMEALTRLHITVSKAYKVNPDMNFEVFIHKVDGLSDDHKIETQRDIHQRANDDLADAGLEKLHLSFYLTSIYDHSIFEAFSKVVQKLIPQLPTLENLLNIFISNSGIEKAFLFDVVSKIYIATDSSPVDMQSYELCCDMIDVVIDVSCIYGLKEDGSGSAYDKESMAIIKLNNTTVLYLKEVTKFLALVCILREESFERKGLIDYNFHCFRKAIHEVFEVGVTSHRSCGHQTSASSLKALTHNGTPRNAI
T1 sequence (Q7L523 whole entry): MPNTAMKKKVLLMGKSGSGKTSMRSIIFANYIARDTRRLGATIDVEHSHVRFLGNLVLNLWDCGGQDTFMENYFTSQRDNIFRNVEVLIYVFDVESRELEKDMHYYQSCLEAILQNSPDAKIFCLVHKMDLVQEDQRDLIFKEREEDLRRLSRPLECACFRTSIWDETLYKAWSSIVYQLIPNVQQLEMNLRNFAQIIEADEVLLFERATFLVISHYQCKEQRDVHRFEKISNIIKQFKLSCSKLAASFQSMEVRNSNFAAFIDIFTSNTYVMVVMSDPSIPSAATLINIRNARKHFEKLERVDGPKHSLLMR

B1: HA-SLC38A9.4 (other)
single chain: LVTIFMIWNTMMGTSILSIPWGIKQAGFTTGMCVIILMGLLTLYCCYRVVKSRTMMFSLDTTSWEYPDVCRHYFGSFGQWSSLLFSLVSLIGAMIVYWVLMSNFLFNTGKFIFNFIHHINDTDTILSTNNSNPVICPSAGSGGHPDNSSMIFYANDTGAQQFEKWWDKSRTVPFYLVGLLLPLLNFKSPSFFSKFNILGTVSVLYLIFLVTFKAVRLGFHLEFHWFIPTEFFVPEIRFQFPQLTGVLTLAFFIHNCIITLLKNNKKQENNVRDLCIAYMLVTLTYLYIGVLVFASFPSPPLSKDCIEQNFLDNFPSSDTLSFIARIFLLFQMMTVYPLLGYLARVQLLGHIFGDIYPSIFHVLILNLIIVGAGVIMACFYPNIGGIIRYSGAACGLAFVFIYPSLIYIISLHQEERLTWPKLIFHVFIIILGVANLIVQFFM
notes: also called HA-tagged SLC38A9 isoform 4
B1: no binding [1].

B2: FLAG-SLC38A9.1 (other)
chain: DYKDDDDKMANMNSDSRHLGTSEVDHERDPGPMNIQFEPSDLRSKRPFCIEPTNIVNVNHVIQRVSDHASAMNKRIHYYSRLTTPADKALIAPDHVVPAPEECYVYSPLGSAYKLQSYTEGYGKNTSLVTIFMIWNTMMGTSILSIPWGIKQAGFTTGMCVIILMGLLTLYCCYRVVKSRTMMFSLDTTSWEYPDVCRHYFGSFGQWSSLLFSLVSLIGAMIVYWVLMSNFLFNTGKFIFNFIHHINDTDTILSTNNSNPVICPSAGSGGHPDNSSMIFYANDTGAQQFEKWWDKSRTVPFYLVGLLLPLLNFKSPSFFSKFNILGTVSVLYLIFLVTFKAVRLGFHLEFHWFIPTEFFVPEIRFQFPQLTGVLTLAFFIHNCIITLLKNNKKQENNVRDLCIAYMLVTLTYLYIGVLVFASFPSPPLSKDCIEQNFLDNFPSSDTLSFIARIFLLFQMMTVYPLLGYLARVQLLGHIFGDIYPSIFHVLILNLIIVGAGVIMACFYPNIGGIIRYSGAACGLAFVFIYPSLIYIISLHQEERLTWPKLIFHVFIIILGVANLIVQFFM
notes: Lysosomal membrane amino acid transporter, expressed in HEK-293T cells and immunoprecipitated from Triton X-100 lysate with anti-FLAG gel; also called SLC38A9 isoform 1; full-length SLC38A9
B2: binds [2].

B3: FLAG-N-terminal 119 fragment of SLC38A9.1 (other)
chain: DYKDDDDKMANMNSDSRHLGTSEVDHERDPGPMNIQFEPSDLRSKRPFCIEPTNIVNVNHVIQRVSDHASAMNKRIHYYSRLTTPADKALIAPDHVVPAPEECYVYSPLGSAYKLQSYTEGYGKNTS
B3: binds [3]; binds [2]; binds [4]. B3: binds [5].

B4: FLAG-metap2 (enzyme)
chain: DYKDDDDKMAGVEEVAASGSHLNGDLDPDDREEGAASTAEEAAKKKRRKKKKSKGPSAAGEQEPDKESGASVDEVARQLERSALEDKERDEDDEDGDGDGDGATGKKKKKKKKKRGPKVQTDPPSVPICDLYPNGVFPKGQECEYPPTQDGRTAAWRTTSEEKKALDQASEEIWNDFREAAEAHRQVRKYVMSWIKPGMTMIEICEKLEDCSRKLIKENGLNAGLAFPTGCSLNNCAAHYTPNAGDTTVLQYDDICKIDFGTHISGRIIDCAFTVTFNPKYDTLLKAVKDATNTGIKCAGIDVRLCDVGEAIQEVMESYEVEIDGKTYQVKPIRNLNGHSIGQYRIHAGKTVPIVKGGEATRMEEGEVYAIETFGSTGKGVVHDDMECSHYMKNFDVGHVPIRLPRTKHLLNVINENFGTLAFCRRWLDRLGESKYLMALKNLCDLGIVDPYPPLCDIKGSYTAQFEHTILLRPTCKEVVSRGDDY
notes: Control bait; also called control protein Metap2
B4: no binding [6]; no binding [7].
